Measured values: the DeepSol protein solubility set

Experiment: soluble on expression in E. coli; label from the status in PepcDB or PDB records

Soluble on expression in E. coli, not soluble:
MIVIEGSDKFKIAKEYIDVEYTLFSKVTFRYEKLKFKDNAELEKIKMFKYKNGYIPNKLNLSFGYGFSSYKKQIIRETVDTLRLTEIFSSENIEDIKFIKDGTKKLEISIEKVVKFKRRKKRNYVCCYCPDMYRDIKLDKESINKIYNRKIKIEREVNIFEDEDVIINKKVLKFPKSWTKNMQKYWLSENKYPIHSTVIDDDRYKCCNVQYTKNRVIILYYIYNH
MIRINNIILDIDEDLENLKNKAAKKLKVSKESFESFKILRESIDARKKDVIKFNYSVEVKCKNESKIISKIHGKDAILEKNKEEERFQFGNEKLKHRPIVIGTGPCGMFAALTLAENGYAPLVIERGENVEKRTETVDNFWKTGVLNTESNVQFGEGGAGTFSDGKLTTRIKDPRCTYVLEEFIKSGAPEEIGYVGKPHIGTDILKKVVKNIRERIISLGGEVKFNSKLEDIIIKNDSIEAVVVNGAEIPCECLVLAIGHSSRDTYEMLHKKGIFMDPKPFAIGVRIEHPQDFINESQYGKYKNHPRLKAADYKLTHTTKDKRGVYSFCMCPGGEVVASSSEDERLVCNGMSYYKRDLENANAALVVTVNSEDFKASKELYNKDISDNSPLIGMEFQRYYEHLAYLAGGGNYNAPIQLVGDFMKDTVSSKLGSVKPSYTPGYKFASLSECLPPYVIAALKEGLVNFDKKITGYMLSDAVMTGIETRTSAPLKITRNESLESISLKGLYPSGEGAGFAGGIISAAVDGVKSAESIMRKYKILEHHHHHH
SSKVEQLRAQLNERILVLDGGMGTMIQSYRLNEADFRGERFADWPCDLKGNNDLLVLSKPEVIAAIHNAYFEAGADIIETNTFNSTTIAMADYQMESLSAEINFAAAKLARACADEWTARTPEKPRYVAGVLGPTNRTASISPDVNDPAFRNITFDQLVAAYRESTKALVEGGADLILIETVFDTLNAKAAVFAVKTEFEALGVELPIMISGTITDASGRTLSGQTTEAFYNSLRHAEALTFGLNCALGPDELRQYVQELSRIAECYVTAHPNAGLPNAFGEYDLDADTMAKQIREWAEAGFLNIVGGCCGTTPQHIAAMSRAVEGLAPRKLPEIPVACRLSGLEPLNIGEDSLFVNVGERTNVTGSAKF
MAHHHHHHMTFEFGEECNNLARAAHQTKNYGDAISLYDRALTMRREKYGPIHKKCAATLHNIGRVFIDMKEYGAAENAFTEAAAIYEQVEGDKSLEYAESLELLALCYTHLKFLDEAEKAFKDSIRIFRDQCYNYGNNSWLPDDKTPPAEPNKHPLSSAAHALADCAALFLFRRQEHQAVAFLEEALEIRRFLYSRHVKFRPMIAQTLNKLCELKKSLDDAVGAEMCINECLEICIETLGRDHPATAQATSSKAGLLAAKKQFRDALRLYEESTRTYAMALGKDAPLFGQELMKLGRCQELCNDVVNAEKTFRRGVEIITNGFGPNSLQLAEANTFYGSLLARRLDIDQAVGMFRDAIRIRKSVDKHDPQLAYLYQKIGDAYAMRREPHAEAYFLLAVDAFKQNATIEPLQRTYMTDVLDDLGLFYLDFQHYEKAEKCFKEALDTRIEMLGENHATVAYSYSNFALLYLQRQDYANCEKMAEAALDIYSKTARSNVLAQADVHTTLGQCYHQQNQFAKALEMHEKALNVRRTRGDTTETAVAESLNQIARVYITMKRYGKAYRHVKEARRLVWQFNVEITQPLRNEIVKTEQMIPPMEEWTNEERAEAQVMIGDGSSAGNGSAATTATGA
MGSDKIHHHHHHMEESPLSRAPSRGGVNFLNVARTYIPNTKVECHYTLPPGTMPSASDWIGIFKVEAACVRDYHTFVWSSVPESTTDGSPIHTSVQFQASYLPKPGAQLYQFRYVNRQGQVCGQSPPFQFREPRPMDELVTLEEADGGSDILLVVPKATVLQNQLDESQQERNDLMQLKLQLEGQVTELRSRVQELERALATARQEHTELMEQYKGISRSHGEITEERDILSRQQGDHVARILELEDDIQTISEKVLTKEVELDRLRDTVKALTREQEKLLGQLKEVQADKEQSEAELQVAQQENHHLNLDLKEAKSWQEEQSAQAQRLKDKVAQMKDTLGQAQQRVAELEPLKEQLRGAQELAASSQQKATLLGEELASAAAARDRTIAELHRSRLEVAEVNGRLAELGLHLKEEKCQWSKERAGLLQSVEAEKDKILKLSAEILRLEKAVQEERTQNQVFKTELAREKDSSLVQLSESKRELTELRSALRVLQKEKEQLQEEKQELLEYMRKLEARLEKVADEKWNEDATTEDEEAAVGLSCPAALTDSEDESPEDMRLPPYGLCERGDPGSSPAGPREASPLVVISQPAPISPHLSGPAEDSSSDSEAEDEKSVLMAAVQSGGEEANLLLPELGSAFYDMASGFTVGTLSETSTGGPATPTWKECPICKERFPAESDKDALEDHMDGHFFFSTQDPFTFE
MSCTGFWRKLASGEECGAAARLLGAVLAIPAALYGLVVRLRALAYARGLSTVRHLDRPVISVGNLTVGGTGKTPMVAYLARRLMARGKRVAVISRGYGGSLEGETRIVSDGRTIVLSAAEAGDEPVHLATSVPGLMTVIGTDRYTAGLLALEQLDPDVFILDDGYQHLRLHRDLNILLMDCNRPLGNGRTLPAGLLREPQTAVRRADLVVYTRCTGGKAPAVHGMIPSCRAGHALTGAALLPDGEVQPLAALRGLRGVACAGIAEPEGFFDALRREGLDIVAAIPFADHASYGEREVSTLREAAAGADYLITTGKDGVKLSAHLARLLPVYATVLEMRPLDPAPLEAALDKVLTHISSCKSLEHHHHHHTHISSCKSLEHHHHHHTHISSCKSLEHHHHHHTHISSCKSLEHHHHHHTHISSCKSLEHHHHHHTHISSCKSLEHHHHHHTHISSCKSLEHHHHHH
MWLKVGGLLRGTGGQLGQTVGWPCGALGPGPHRWGPCGGSWAQKFYQDGPGRGLGEEDIRRAREARPRKTPRPQLSDRSRERKVPASRISRLANFGGLAVGLGLGVLAEMAKKSMPGGRLQSEGGSGLDSSPFLSEANAERIVQTLCTVRGAALKVGQMLSIQDNSFISPQLQHIFERVRQSADFMPRWQMLRVLEEELGRDWQAKVASLEEVPFAAASIGQVHQGLLRDGTEVAVKIQYPGIAQSIQSDVQNLLAVLKMSAALPAGLFAEQSLQALQQELAWECDYRREAACAQNFRQLLANDPFFRVPAVVKELCTTRVLGMELAGGVPLDQCQGLSQDLRNQICFQLLTLCLRELFEFRFMQTDPNWANFLYDASSHQVTLLDFGASREFGTEFTDHYIEVVKAAADGDRDCVLQKSRDLKFLTGFETKAFSDAHVEAVMILGEPFATQGPYDFGSGETARRIQDLIPVLLRHRLCPPPEETYALHRKLAGAFLACAHLRAHIACRDLFQDTYHRYWASRQPDAATAGSLPTKGDSWVDPS
MGSDKIHHHHHHMKNTVAFKTITGRDAVYKAYDAFLGNMGIPHEEVNVDTRFGKAFVIAAGKKDAPVLVLLHGSGINSVMWIKDMEKYSEHYRVYAVDLQGEPGKSDGKQLSFEGSDFDNWLHDVFAGLSVEKASIAGISLGAWLALKFAIANPQMVDKLVLLCPAGVGPQKTSFAYVSLFHMLLWGEKGVERLFRKVNGGKPIPQEIMDYQKLLGNNFNFRREQVPLFSDAELTQLTIPSILFVGQKDVMFHSLKTAQRYRNLVPDAKVIVLREAGHTLIGLVDDILEFLQN
MGSDKIHHHHHHMKSVGQALENQGRVPRNTNDELIQMILADAQVAEFIKTHQLSQREINISMSKFNQFLIERQKFKNKDSQYIAKGYEPILVMNEGYADVSYLETRELIEAQKKQAISDRINLVNLPKSYRNIRMTDFDINNESRMKAMSQLLDFVETYPSYNHKGLYLYGDMGVGKSYLMAAMARELSERKGVSTTLLHFPSFAIDVKNAISSGTVKDEIDAVKSVPILILDDIGAEQATSWVRDEILQVILQHRMLEELPTFFTSNYSFNDLERKWANIKGSDETWQAKRVMERVRYLAIEFHLEGPNRR

Soluble on expression in E. coli, soluble:
GMMYTNDNRIVMTLDAGGTNFVFSAIQGGKEIADPVVLPACADCLDKCLGNLVEGFKAIQAGLPEAPVAISFAFPGPADYQAGIIGDLPNFPSFRGGVALGPFLEDIFGIPVFINNDGSLFAYGEALTGVLPEINRRLREAGSTKRYKNLLGVTLGTGFGAGVVIDGELLRGDNAAGGYVWCLRNKKYPEYIVEESVSIRAVMRVYAERSGDAGARTPKEIFEIAEGIRPGNREAAIAAFEELGEMAGDALASAITLIDGLIVIGGGLSGASKYILPVLLKEMNAQTGMMDGARFGRLQKEVYDLDEEKSFAGFARGEAVEVLVPGTNRKVGYDPCKRIGVTFSKQGANRSIAMGAYVFALNHLSK
MAEGGGGVGVVYVLENEAYLSKEGGTLKVSRRAGREVLLQKPLIAVEEIVILGNAVVTPALLKHCAQEGVGIHYLSPTGTYYAGLTRTPSKNAPARVAQFKAYLEPTWKLALAQRFVLGKIRNGLVFLRRNGAEGWERLKEALLEAERAQDEEALRGAEGRAADLYFRAFAELLPEEFAFGERSRRPPRDPANSLLSLAYTLLAKECESALLVAGLDPYVGYLHEVRYGRPSLALDLMEEFRSVLADSVVLSLLNNRRVTLEDFDDSEGFPRLRKEAWPKFLRAWEGRLNERIQHPLLGKRLAYREILLAQARILVKHLLGELPRYEPFAVR
MSFTTISVIGLGYIGLPTAAAFASRQKQVIGVDINQHAVDIINRGEIHIVEPALGNVVKMAVEGGFLRATTTPVEADAYLIAVPTPFKGDHDPDMAYVEAAAKSIAPVLKKGALVILESTSPVGATEQMAGWLAGMRTDLTFPQQAGEQADVNIAYCPERVLPGQVMVELIKNDRVIGGMTPVCSARASALYKIFLEGECVVTNSRTAEMCKLTENSFRDVNIAFANELSLICAEQGINVWELIRLANRHPRVNILQPGPGVGGHCIAVDPWFIVAQNPQQARLIRTAREVNDGKPHWVVDQVKAAVTDCLAATDKRASEVKIACFGLAFKPNIDDLRESPAMGIAQSIARWHSGETLVVEPNIRQLPKKLDGLCTLAKLDAALAAADVLVMLVDHDEFKAIPGDAVHQRYVVDTKGVWR
SLAVLGLGYAGLFKSQMESLEEYEAKETELKNTYKQKSIDAASLNNLRDELASIRSAFDIMLKQLPTDAEIPNLVQELHQAGSSNGLRLDSVMPQPPVDDGPIKRLPYSISITGNYEQISQFTRDVGSLSRIITLESLKIAQSPENGGNPDGKSSILNLSAIATTYQAKSVEELAAEAAQNAEQK
MSLEDSEQIQILQHLISINSVNDHEADVAAYIQQLFADHGITSQVIPYADGRANIIAEIGDTTSDQVFALAGHLDTVATGDVADWKFDPFSAHIVDNQLYGRGAADMKSGLAAMVITLINLADQQTPLTGRLRFIGTVGEENGAMGSRMLTEKGVADDLTAMVIGEPTGGNLVYAHNGSLNYHVYSRGVGAHSSMPEKGINAITNLIKYVTAEATAFDDAPVSPELGPLVHSVTVFNGGEQVNSIPAKAELQGNIRPIPEFDNTAVIHRLHETVDRLNQEPGVDLALHVDYSFKPIISAKDSPLVQTTKAIADQEFGHAIDLQVIHGATDASEFTKSSHDFPVIVYGAGKWDAAHALNESVDLDEFRHVQHVYQQLVEKFLSEGHHHHHH
MSQFTLYKNKDKSSAKTYPYFVDVQSDLLDNLNTRLVIPLTPIELLDKKAPSHLCPTIHIDEGDFIMLTQQMTSVPVKILSEPVNELSTFRNEIIAAIDFLITGI
MGSSHHHHHHSSGRENLYFQGHMEKDRKRILITGGAGFVGSHLTDKLMMDGHEVTVVDNFFTGRKRNVEHWIGHENFELINHDVVEPLYIEVDQIYHLASPASPPNYMYNPIKTLKTNTIGTLNMLGLAKRVGARLLLASTSEVYGDPEVHPQSEDYWGHVNPIGPRACYDEGKRVAETMCYAYMKQEGVEVRVARIFNTFGPRMHMNDGRVVSNFILQALQGEPLTVYGSGSQTRAFQYVSDLVNGLVALMNSNVSSPVNLGNPEEHTILEFAQLIKNLVGSGSEIQFLSEAQDDPQKRKPDIKKAKLMLGWEPVVPLEEGLNKAIHYFRKELEYQANNQGS
